Results reported in patent publication US20180346526.
Positions count from the first letter of the chain named. Numbers in names are those of the source.

Molecular target: T1, YydF18-49, truncated form of YydF with residues 18 to 49
T1 chain: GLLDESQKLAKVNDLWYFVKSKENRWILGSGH

B1: YydG C223A mutant (protein)
chain: MYNKTVSINLDSRCNASCDHCCFSSSPTSTTRMEKEYIRELVTEFAKNKTIQVISFTGGEVFLDYKFLKELMEIIKPYEKQITLISNGFWGLSKKKVQEYFHDMNSLNVIALTISYDEYHAPFVKSSSIKNILEHSRKYPDIDISLNMAVTKDKMSNHILEELGDSILGVKITKFPMISVGAAKTRIKQENIHKFYSLEDEDSLHCPGYDIVYHHDGEIYPCASPAIFETKITLREEYNQSFERTVEKLNSNLLLFILRKEGFKWFLNILKENNKIEEFDIPYEFSSICGVCGSLFNSAEKINYFYPYMEKYYNENFKV
In the case of B1, the “epimerization activity on the peptide substrate (HPLC, LC-MS)” value is reported as “The C223A mutation did not either prevent the epimerization activity”.

B2: YydG C222A mutant (protein)
chain: B1 chain with C222A, A223C
In the case of B2, the “enzyme activity on the peptide substrate (HPLC)” value is reported as “The C222A mutant was also totally impaired for enzyme activity”.

B3: YydG, radical SAM epimerase of Bacillus subtilis (wild type) (protein)
chain: B1 chain with A223C
In the case of B3, the “Peptide 3*/Peptide 3 ratio relative to Peptide 2*/Peptide 2 ratio (tryptic peptide mapping)” value is reported as “the Peptide 3*/Peptide 3 ratio was 5 times larger than the Peptide 2*/Peptide 2 ratio”, the “epimerization of Ile residues” value is reported as “up to ˜35% of the Ile” and the “epimerization of Val residues” value is reported as “˜10% of Val residues”. For the same protein, the “formation of epimerized peptide derivatives (HPLC)” value was “YydF18-49 proved to be a better substrate” and the “moles of 5'-dA produced per mole of modified product” value was “YydG produced one mole of 5′-dA per mole of modified product”.

B4: YydG C22A mutant (protein)
chain: B1 chain with C22A, A223C
In the case of B4, the “enzyme activity on the peptide substrate (HPLC)” value is reported as “the C22A mutation did not affect the activity of the enzyme and the three epimerized peptides were produced”.

B5: YydG A3 mutant (AxxxAxxA) (protein)
chain: B1 chain with C14A, C18A, C21A, A223C
B5 was tested, and the “conversion of the peptide substrate and SAM cleavage (HPLC)” value was “the A3 mutant was unable to convert the peptide substrate and to cleave SAM”.
